Assay results as given in the MegaScale stability set (Tsuboyama et al. 2023).

B1: EHEE_rd4_0086 (parent)
chain: EIHIRTNGEEQARKVYKMLAKRNYDVKIEQHNGQWVVTAS
B2: EHEE_rd2_0601 (parent)
chain: TYTYKLTDEEASRRAEDEWRNRGYDVRVRNNNGTWEVEVR

Variants of: B1
Assay: folding stability dG (cDNA display proteolysis); higher = more stable
Conditions: PBS, room temperature

| Variant | folding stability dG |
| --- | --- |
| EINIRTNGEEQARKVYKMLAKRNYDVKIEQHNGQWVVTAS [H3N] | 1.67 kcal/mol |
| EIDIRTNGEEQARKVYKMLAKRNYDVKIEQHNGQWVVTAS [H3D] | 0.614 kcal/mol |
| EIYIRTNGEEQARKVYKMLAKRNYDVKIEQHNGQWVVTAS [H3Y] | 2.36 kcal/mol |
| EIRIRTNGEEQARKVYKMLAKRNYDVKIEQHNGQWVVTAS [H3R] | 2.4 kcal/mol |
| EIMIRTNGEEQARKVYKMLAKRNYDVKIEQHNGQWVVTAS [H3M] | 2.23 kcal/mol |
| EIKIRTNGEEQARKVYKMLAKRNYDVKIEQHNGQWVVTAS [H3K] | 2.26 kcal/mol |
| EIPIRTNGEEQARKVYKMLAKRNYDVKIEQHNGQWVVTAS [H3P] | 0.072 kcal/mol |
| EIGIRTNGEEQARKVYKMLAKRNYDVKIEQHNGQWVVTAS [H3G] | 0.661 kcal/mol |
| EISIRTNGEEQARKVYKMLAKRNYDVKIEQHNGQWVVTAS [H3S] | 2 kcal/mol |
| EIWIRTNGEEQARKVYKMLAKRNYDVKIEQHNGQWVVTAS [H3W] | 2.12 kcal/mol |
| EIQIRTNGEEQARKVYKMLAKRNYDVKIEQHNGQWVVTAS [H3Q] | 2.06 kcal/mol |
| EIHIRINGEEQARKVYKMLAKRNYDVKIEQHNGQWVVTAS [T6I] | 2.02 kcal/mol |
| EIHIRWNGEEQARKVYKMLAKRNYDVKIEQHNGQWVVTAS [T6W] | 0.843 kcal/mol |
| EIHIRQNGEEQARKVYKMLAKRNYDVKIEQHNGQWVVTAS [T6Q] | 0.309 kcal/mol |
| EIHIRFNGEEQARKVYKMLAKRNYDVKIEQHNGQWVVTAS [T6F] | 3.03 kcal/mol |
| EIHIRGNGEEQARKVYKMLAKRNYDVKIEQHNGQWVVTAS [T6G] | 0.494 kcal/mol |
| EIHIRDNGEEQARKVYKMLAKRNYDVKIEQHNGQWVVTAS [T6D] | -0.07 kcal/mol |
| EIHIRANGEEQARKVYKMLAKRNYDVKIEQHNGQWVVTAS [T6A] | 1.73 kcal/mol |
| EIHIRVNGEEQARKVYKMLAKRNYDVKIEQHNGQWVVTAS [T6V] | 2.55 kcal/mol |
| EIHIRMNGEEQARKVYKMLAKRNYDVKIEQHNGQWVVTAS [T6M] | 1.91 kcal/mol |
| EIHIRHNGEEQARKVYKMLAKRNYDVKIEQHNGQWVVTAS [T6H] | 0.847 kcal/mol |
| EIHIRLNGEEQARKVYKMLAKRNYDVKIEQHNGQWVVTAS [T6L] | 2.35 kcal/mol |
| EIHIRKNGEEQARKVYKMLAKRNYDVKIEQHNGQWVVTAS [T6K] | 0.706 kcal/mol |
| EIHIRYNGEEQARKVYKMLAKRNYDVKIEQHNGQWVVTAS [T6Y] | 1.89 kcal/mol |
| EIHIRRNGEEQARKVYKMLAKRNYDVKIEQHNGQWVVTAS [T6R] | 0.963 kcal/mol |
| EIHIRSNGEEQARKVYKMLAKRNYDVKIEQHNGQWVVTAS [T6S] | 1.16 kcal/mol |
| EIHIRENGEEQARKVYKMLAKRNYDVKIEQHNGQWVVTAS [T6E] | 0.299 kcal/mol |

| Variant | folding stability dG |
| --- | --- |
| EIHIRPNGEEQARKVYKMLAKRNYDVKIEQHNGQWVVTAS [T6P] | 0.496 kcal/mol |
| EIHIRNNGEEQARKVYKMLAKRNYDVKIEQHNGQWVVTAS [T6N] | 0.438 kcal/mol |
| EIHIRTFGEEQARKVYKMLAKRNYDVKIEQHNGQWVVTAS [N7F] | 2.03 kcal/mol |
| EIHIRTEGEEQARKVYKMLAKRNYDVKIEQHNGQWVVTAS [N7E] | 1.69 kcal/mol |
| EIHIRTGGEEQARKVYKMLAKRNYDVKIEQHNGQWVVTAS [N7G] | 1.5 kcal/mol |
| EIHIRTAGEEQARKVYKMLAKRNYDVKIEQHNGQWVVTAS [N7A] | 1.95 kcal/mol |
| EIHIRTHGEEQARKVYKMLAKRNYDVKIEQHNGQWVVTAS [N7H] | 1.73 kcal/mol |
| EIHIRTDGEEQARKVYKMLAKRNYDVKIEQHNGQWVVTAS [N7D] | 1.82 kcal/mol |
| PIHIRTNGEEQARKVYKMLAKRNYDVKIEQHNGQWVVTAS [E1P] | 1.91 kcal/mol |
| MIHIRTNGEEQARKVYKMLAKRNYDVKIEQHNGQWVVTAS [E1M] | 2.29 kcal/mol |
| WIHIRTNGEEQARKVYKMLAKRNYDVKIEQHNGQWVVTAS [E1W] | 2.55 kcal/mol |
| VIHIRTNGEEQARKVYKMLAKRNYDVKIEQHNGQWVVTAS [E1V] | 2.47 kcal/mol |
| AIHIRTNGEEQARKVYKMLAKRNYDVKIEQHNGQWVVTAS [E1A] | 2.08 kcal/mol |
| SIHIRTNGEEQARKVYKMLAKRNYDVKIEQHNGQWVVTAS [E1S] | 2.08 kcal/mol |
| QIHIRTNGEEQARKVYKMLAKRNYDVKIEQHNGQWVVTAS [E1Q] | 2.17 kcal/mol |
| YIHIRTNGEEQARKVYKMLAKRNYDVKIEQHNGQWVVTAS [E1Y] | 2.5 kcal/mol |
| FIHIRTNGEEQARKVYKMLAKRNYDVKIEQHNGQWVVTAS [E1F] | 2.51 kcal/mol |
| LIHIRTNGEEQARKVYKMLAKRNYDVKIEQHNGQWVVTAS [E1L] | 2.37 kcal/mol |
| IIHIRTNGEEQARKVYKMLAKRNYDVKIEQHNGQWVVTAS [E1I] | 2.48 kcal/mol |
| HIHIRTNGEEQARKVYKMLAKRNYDVKIEQHNGQWVVTAS [E1H] | 2.46 kcal/mol |
| RIHIRTNGEEQARKVYKMLAKRNYDVKIEQHNGQWVVTAS [E1R] | 2.29 kcal/mol |
| TIHIRTNGEEQARKVYKMLAKRNYDVKIEQHNGQWVVTAS [E1T] | 2.31 kcal/mol |
| KIHIRTNGEEQARKVYKMLAKRNYDVKIEQHNGQWVVTAS [E1K] | 2.3 kcal/mol |
| NIHIRTNGEEQARKVYKMLAKRNYDVKIEQHNGQWVVTAS [E1N] | 1.8 kcal/mol |
| GIHIRTNGEEQARKVYKMLAKRNYDVKIEQHNGQWVVTAS [E1G] | 1.84 kcal/mol |
| DIHIRTNGEEQARKVYKMLAKRNYDVKIEQHNGQWVVTAS [E1D] | 1.72 kcal/mol |

Variants of: B2
Assay: as above
Conditions: PBS, room temperature

| Variant | folding stability dG |
| --- | --- |
| TYTYKLTDEEASRRAEDEWRNRGYDVRVRNNNGTWEVEVP [R40P] | 0.016 kcal/mol |
| TYTYKLTDEEASRRAEDEWRNRGYDVRVRNNNGTWEVEVY [R40Y] | 1.59 kcal/mol |
| TYTYKLTDEEASRRAEDEWRNRGYDVRVRNNNGTWEVEVL [R40L] | 1.43 kcal/mol |
| TYTYKLTDEEASRRAEDEWRNRGYDVRVRNNNGTWEVEVW [R40W] | 1.8 kcal/mol |
| TYTYKLTDEEASRRAEDEWRNRGYDVRVRNNNGTWEVEVM [R40M] | 1.41 kcal/mol |
| TYTYKLTDEEASRRAEDEWRNRGYDVRVRNNNGTWEVEVT [R40T] | 1.54 kcal/mol |
| TYTYKLTDEEASRRAEDEWRNRGYDVRVRNNNGTWEVEVS [R40S] | 1.71 kcal/mol |
| TYTYKLTDEEASRRAEDEWRNRGYDVRVRNNNGTWEVEVV [R40V] | 1.32 kcal/mol |
| TYTYKLTDEEASRRAEDEWRNRGYDVRVRNNNGTWEVEVN [R40N] | 0.95 kcal/mol |
| TYTYKLTDEEASRRAEDEWRNRGYDVRVRNNNGTWEVEVQ [R40Q] | 1.09 kcal/mol |
